Source: the DeepSol protein solubility set

experiment: soluble on expression in E. coli; label from the status in PepcDB or PDB records

Sequence | soluble on expression in E. coli
MGSDKIHHHHHHMEKQYEYVHEKFRHLVIASNQERIEFLDEPRWVGYAVANKIIDNLVSLMNKPKRPRMFNLLVVGDSNNGKTTLIRHFYDLYGIPFVDSQSDGIRPIILAEAPPSANEKELYISLLERFYVPYRPTDSVAKLRYQTIHLFREYKVKMLIIDEFHSLLVGTPRLQRQVMNAIKMLCNELQIPIVGVGTKDAIRVLHTDPQHASRFDVAELPTWKLDKDFQKLLFQFQGILPLKKCSNLQSPELATKIHTISGGNLGNVHRLLTACAIEAITTGTEQITLDIIEHNSWVQPTQGLRKIIG | not soluble
MSTSCFPDVPLELTTRHPRPLQACPERHSQSTHDSLGIWVKRREEKPMERMSKDYDIVQIPRDVGYSDLPRKMEVGKPFEINGSVYVCEKRGGEIMKICSEDSGRTGVPVLNKGFYVVRRM | not soluble
MCLAVPGKVIEVNGPVAVVDFGGVKREVRLDLMPDTKPGDWVIVHTGFAIEKLDEKKAMEILEAWAEVEKAMEGF | soluble
MAHHHHHHMSALKDKTGRFVVLDKNASNYESLVDQEMNNVYERVMKLDPNQVEFLQAFHEILYSLKPLFMEEPKYLPIIETLSEPERAIQFRVCWLDDNGVQRKNRCFRVQYNSALGPYKGGLRFHPSVNLSIVKFLGFEQIFKNSLTGLSMGGGKGGSDFDPKGKSDNEILKFCQAFMNELYRHIGPCTDVPAGDIGVGGREIGYLYGQYKKIVNSFNGTLTGKNVKWGGSNLRVEATGYGLVYFVLEVLKSLNIPVEKQTAVVSGSGNVALYCVQKLLHLNVKVLTLSDSNGYVYEPNGFTHENLEFLIDLKEEKKGRIKEYLNHSSTAKYFPNEKPWGVPCTLAFPCATQNEINLEDAKLLQKNGCILVGEGANMPSTVDAINLFKSNNIIYCPSKAANAGGVAISGLEMSQNFQFSHWTRETVDEKLKEIMRNIFIACSENALKYTKNKYDLQAGANIAGFLKVAESYIEQGCF | soluble
EHEHNYHPNAVAAGLRAGRTRSIGLVIPDLENTSYTRIANYLERQARQRGYQLLIACSEDQPDNEMRCIEHLLQRQVDAIIVSTSLPPEHPFYQRWANDPFPIVALDRALDREHFTSVVGADQDDAEMLAEELRKFPAETVLYLGALPELSVSFLREQGFRTAWKDDPREVHFLYANSYEREAAAQLFEKWLETHPMPQALFTTSFALLQGVMDVTLRRDGKLPSDLAIATFGDNELLDFLQCPVLAVAQRHRDVAERVLEIVLASLDEPRKPKPGLTRIKRNLYRRGVLSRS | soluble
AIAASSDVLRQPDKNARPLALSGHVGFDSLPDQLVNKSTSQGFCFNILCIGETGIGKSTLMDTLFNTNFENFESSHFEPKVKLRAQTYDLQESNVRLKLTVVNTVGFGDQMNKQESYQHIVDYIDTQFESYLQEELKIKRSLHNYHDSRIHACLYFIAPSGHSLKSLDLVTMKKLDSKVNIIPVIAKADTISKSELHKFKIKIMSELVSNGVQIYQFPIDDETVAKINTAMNGHLPFAVVGSTEEVNIGNKMVKARQYPWGVVQVENENHCDFVKLREMLICVNMEDLREQTHTRHYELYRRCKLEEMGFKDTDPECKPVSLQQTYEAKRQEFLGELQRREEEMRQTFVQRVKEKEAELKDAERELQGKFEQLKRLHADEKSKLEEKRRSLEEEMSVFSKRKAATELLQAQSFNTSTNNKKDKDRKNSGFM | soluble
NIYDSANELSRGLRGLPEYKAVKAAKDAIAADAEASKIFTDYLAFQEEIQKLAQTGQMPDASFQAKMEGFGKQIQGNSLLSEFFTKQQQLAIYLSDIEKIVFEPVSELLK | not soluble
MSLSSARADRLRSHQTRVIGLILTDIANPFYTEIAAGTIDAARARGYEVFLAHTQEDPQTLRSIVDTMIARQVDGVVITVLHPDDGEVIRSLRSARIPLVQLSRRIQRVDADFVGIDDRAAASEMMEHVVTHGYQDIVTVVGPRTSSASAAREEGFIRTAEAHGIRTVSSQRISTYLSERGGYEAVEQVLARKSLPRVIVCGSDVIALGAISALRERSLNVPDDVAVTGFDGLYPGPLVELTTINQPRREMAEQSIELLTRRIEGAGGSYQSVLRAHQLRIGTTCGCPRMRPHLAAEGHHHHHH | not soluble
MSLSTPSKAMAAMEFNTTSVNKSSAIDSNNTKKEQLSDVNDISFTDHGYYIIPSLDTLNGMPLVELRSVNGLVVGHKDYGKVEFLEPVDLVNVPLNSICDKLIHFEPKTCILYPNSPIKPKKGEGMNVPAKITCFDCFPINKSTREPILDANSTLLKKHIDKLKKVPGTKFVSYEEKTGKYVFTVDEPILEGHHHHHH | soluble
MGSDKIHHHHHHMTEQVTRRDVLGTGASVLGSLAIGSTTASGALQTDGTTVTFLHDTHVHGRFANASAGELSVARYFGLMNEITEDADTTLRVGNGDDLASSVLSAVFDGRHVVSTFNAGGLDFDTFGNHDFDMGPEVLRERVSDSLFTWVSANVREDGSVFAAEQGAQQYVLTDVGDVTLGVTGLITPEAPEVTSIGENTDVLAPASALQNVTERMRADGADAVIVLSHLASETARTVAEEVDGVDAIIGDHAASLLEEPEVINDTVLSFVGDEYEYLGELALGIDGSGVTDHEFVLHNVGESSAGTDPFVSLVQDHYETQLERQLDVVIGETTQPLDTRQSVVRARESNMGNFVADTIRTDVEADTALMNGGGIRTDRLYFEDASEDDPVAITRRVVVDILPFPNNVVELEVTGETLLAALENGVSRVEAGAGRFPQVSGITYTYDPTAESGDRIVDATAGGDPIDPDATYTLATNDFVSGGGDGYDMLSDATVLVSSNEGALLSDLIINTIEEQGTISPTTEGRITRQSEES | not soluble
MAHHHHHHMGIGYSQPLTVDTAGPPSSFSCARTVAHVAALTIQRSTQFLGGSTPPPSQSHTHAHHRKKHSHVRSEIACWASATLPSHSNLQRLRDPTTAVNRHSKRCKGEMVVRRMPSDGAGSHATVSENRAPSKRKLRGGFLFASSKWREHLTCNNQNGDTEDHWGLGEGEVRFHSWERILALSVCPLFLLPDGRDSGVTALCGHTEGHEGKERTAVGIMLRTVVKMGDESELTKGGSRGN | soluble
MEDGPNEFRAWLAEIGPSWIDVFPREEDPTPEYILFGGRWNSSERDEGRRIIVNVACLLFPEESTSACQREIWTSSQYELGNLETQTTLSLRSSCPDGAKLVGGGCSTEAVGSYRYVQVIQSGFAQDDPDAWLCSWANTSDDEQTQAMAMAYCLHEEPLPAECGCCPTMAETITVKREDEPLRFGPNRLEVSCDEGQTLVLGNCTLDVDDITPFRDVTMFRSGFPPTEEHPDGDRSRWGCSWYNPTGMAPRAIATAVCLPAE | not soluble
MSLVTIVAPMDEILERAHVVALPMRVKFRGIMVREAVLFDGPKGWGEFSPFVEYGVQEAAQWLRCGLEMAFQGPPPMIRDAVEVNATIPAVSPDQVPEILARYPGCTTVKVKVAEGDDAARVAMVREVLPDARIRVDANRGWTVDQAVAASKHLGELEYMEQPCASVAELAELRRRISVPIAADESIRRVSDPYEVARLHAADVAVVKAAPLGGPRNIVDIAKFYQQRGLSLTVASALDTGVGMNAGIAVAAAIDSNPAGLATQRLFVEDVTEPRTIVDGKMSVEMLAPDPARLAEFEVTGPRRDWWLDRVRGALECLHDFIPEGHHHHHH | not soluble
MGSDKIHHHHHHMTRSAEPRVLQFCHGYDGPFLDCARQYASLFAGTPYKVTTVFLTGRSDPEVAARCASDEVLFLEYGSRDIRGLKLKAIRDLREIARSRDFRFCIAHRFKPIWIASLATRLPIVGVHHAFGDYQRLSRKVFAGLMSKRLSLLAVSDAVRDDIRRCLPKWPAERIETLYNRIDVAALQAEQVERLSARRQLRLPDEAWVVGNVGRLHPDKDQATLLRGFAAALPRLPQNSLLAILGSGRLEEQLKDLACELGIGERVLFLGQVEEARRYFKAFDAFALSSDHEPFGMVLLEAMVAGVPLIATACGGAREVVEGVGILFPLGDETALAEGLTHLAALDRRQREACARLMLERLETRFSDAAVRREFWRLPTIAGFASESAC | not soluble
MGSDKIHHHHHHMFIENYCPISADRISFTRQQGSDFAKQVADDFNPLHNIDAKRFCVPGDLLFSIIIAKSGLHKNMTFDFSGMVSDDVHLTFPQEIDESFDIKDDKDKTCLSVHVSGDKTHESVLINALTKAYVDFSGHTFPDILVKLMADNSVMINPARPMVMYQSMSIDLHTLTAETVTLKLAKTSLSIEGKRGDAWLEFDLLSNDKVIGHGKKHMLLSGLRTYEQETIDAMVNQYRDSKKNYQA | not soluble
MSLSREPQTYLAQRFDPDALGQPALALQLEARHNDTEVPVHRHRKGQLVVACRGGITCTVPDGLWMVPAGFGVWIPGGIAHSNRVTANGKVCFLFVEPGAARLPSDCCTLALSPLVLELILHLSAQPQDYPHDGPLARLAGVLLELLEQAPTEQLYLPLPDNRGLRRIADELTRAPGDRASMAEWARRVAMSERSLARMVRRETGMTFGQWRQQLQIIIALQQLSAGVSVQRTAEILGYESVSSFIGMFRKALGSPPARYVRDSMEGGSHHHHHH | soluble
SLNVPDMILYNGKITTLDPSQPEVSAIAITDGLITAVGGYELLNSATEKTKKIDLKRKRAIPGLNDSHIHVIRGGLHYNMELRWEGVPSIAIALEMLKEQARRTPAPQWVRVVGGWSEFQFKERRMPTLEEINAVSEDTPVFVLHLYDRALVNRAGLRALGYTKDTPDPPGCLIERDKRGNPTGLLIANPNASILYSSLGKAPILNFDDQINSTRHFMRELNRLGITSAIDAGGGFQNYPDDYRVVEHLAEKEQLTLRIAYNLFTQNPNHEYEDFASWAKIVSPGQGNDKYKMNGAGEMLVFSAADFEKFQMPRPELATMMEADLKKVISLLVENRWPFRLHATYDESITRFLNVFEEVNKEIPFNGLRWWFDHAETISDRSMERVKALNGGIAIQDRMAFQGEYFVDLYGKEAAKRTPPIYRMLDLGIPVGAGSDATRVSSYNPWVALYWMVAGKTIGGLSIYDKKNKLDRKVALELYSKGSAWFSGDEGKKGTLAVGQFADIAVLSADYFTVPEEEIKDLESLLTIMGGQVVYGNDEFKNLSPELPPASPDWSPTGVYGYGGANLAHTILSHNSHDNKLHSCSNPLHQHTHTVIGKDGTKWGIGCTCFAF | not soluble
AMACWAQSQGYNCCNNPSSTKVEYTDASGQWGVQNGQWCGIDYSYGQNQGNESCTGNGSYPCCNTCQATYTDGDGDWAFENGNWCGIKNSCKQQPQNNNQ | soluble
MDICERSDEVVRYDSAQIRNGELELSSTVDDALFTDGLVATSGMLNADCRLVFGLVMFGHPLDEPMLCFTANGFELTVSIPNEDGETSSTWVIMARER | not soluble
MSYTAEMIIRLREEKKEMRNRDFAISIGISEAELIAAYCTIGKAKRLKTDIAVLLENAPQLGTVMALTRNEHAVHEITGCFEKIVQNQHVLLTLGEIDLRIFAKQWKFCFEYEAIVLGKPTKSLHFFDQNGVAIFKLYSKDTTNMAEWNKLVDKLLHEDQSPVLDIPPKAIPNKRDIVELNVEEFRDRWRKMTDVHQLHGIISELKINRHDAVKYVGNEFAHELKREAIEIMLNQVAQQEVPIMCFVGNKGCIQIFSGQIKNIKQMGPWLNVLDKKFHLHLLIPGIKNVWCVRKPTSDGHVTSLEVFDENDEMIIQFFGMRKEGQKEREDWRSLLNSLPQSHAVAVA | not soluble
MIDHQHLRLFQFCDSQFPTGAFSHSFGLETYIQRETVHDTETFIKWLHLFINEQLTYSDGIAMRIVYHALINNDKDKILDINQKLFVQNLPKETRIGAKQMGTRMVKLALDLYDSEWIQWYYNQMKNNKIKLHPAVCFTMLGHFLGVDVESIIDYYLYQNISSLTQNAVRAIPLGQTAGQQVVTEMIAHIEKTRNHILELDEIDFGMTAPGLELNQMEHENVHVRIFISLEHHHHHH | not soluble
MNRLDQLGIRINLICNVFDKWIGQQDLNYNLFTVLYTLATEGSRTQKHIGEEWSLPKQTVSGVCKTLAGQGLIEWQEGEQDRRERLLSLTEKGKVHAAPLTENAQEFSDKVFSTFGDKRTTRLFADLDALAEVMEKTISENKK | not soluble
